US20170313754A1 (PROTAGONIST THERAPEUTICS, published 2017)
Numbered stars: 1 amine (or outer) side, 2 acyl side, 3 side chain; on linkers, the order of the positions; unused ones are H or OH. Bridge positions count the residues as written; N and C are the ends. Primed or numbered codes have the meaning given here. Side chains are listed from the residue outwards. * marks the point of attachment. PEG3″ = NH2CH2CH2(OCH2CH2)3CH2CH2CO2H (PEG3 linker), NCCOCCOCCOCCCCC(=O)*; γGlu = O=C(O)[C@H](CCC(=O)[*:2])N[*:1]; Palmitoyl = CCCCCCCCCCCCCCCC(=O)*; dapa = diaminopropionic acid; Isovaleryl = CC(C)CC(=O)*; Dap = NC[C@H](N)C(=O)O

T1: human ferroportin (SLC40A1) fused in frame with GFP, stably expressed in HEK293 cells (human, UniProt Q9NP59 1-571)
T1 sequence (looked up): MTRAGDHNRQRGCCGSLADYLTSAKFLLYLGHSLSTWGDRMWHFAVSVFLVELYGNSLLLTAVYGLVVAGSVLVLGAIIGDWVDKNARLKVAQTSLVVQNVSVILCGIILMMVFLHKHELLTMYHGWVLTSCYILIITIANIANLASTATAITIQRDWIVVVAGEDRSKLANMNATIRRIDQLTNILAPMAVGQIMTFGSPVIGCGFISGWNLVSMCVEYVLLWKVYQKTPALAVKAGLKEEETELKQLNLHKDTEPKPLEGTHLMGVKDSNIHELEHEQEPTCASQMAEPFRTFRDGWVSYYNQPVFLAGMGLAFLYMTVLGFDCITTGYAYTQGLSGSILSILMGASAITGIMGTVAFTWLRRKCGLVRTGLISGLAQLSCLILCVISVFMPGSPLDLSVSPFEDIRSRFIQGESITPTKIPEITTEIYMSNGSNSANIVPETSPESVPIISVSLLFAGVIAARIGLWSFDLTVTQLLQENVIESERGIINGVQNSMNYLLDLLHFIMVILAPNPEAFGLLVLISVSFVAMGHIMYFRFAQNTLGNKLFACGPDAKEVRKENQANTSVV

B1: Isovaleric acid-DTHFPCIKFEPRSKKWVCK-NH2 (peptide)
peptide: Isovaleryl-DTHFPCIKFEPRSKKWVCK-NH2
modifications: disulfide 6-18 (inferred)
B2: Hy-DTHFPCIKFGPRSKGWVCK-NH2 (peptide)
peptide: H-DTHFPCIKFGPRSKGWVCK-NH2
modifications: disulfide 6-18 (inferred)
B3: Palm-DTHFPCIKFGPRSKGWVCK-NH2 (peptide)
peptide: Palmitoyl-DTHFPCIKFGPRSKGWVCK-NH2
modifications: disulfide 6-18 (inferred)
B4: Palm-PEG3-DTHFPCIKFGPRSKGWVCK-NH2 (peptide)
peptide: {Palmitoyl-PEG3″}-DTHFPCIKFGPRSKGWVCK-NH2
modifications: disulfide 6-18 (inferred)
B5: Isovaleric acid-DTHFPCIKFEP-K(isoglu-Palm)-SKGCK-NH2 (peptide)
peptide: Isovaleryl-DTHFPCIKFEPK([γGlu-Palmitoyl])SKGCK-NH2
modifications: not fully specified (bridges); cysteine pairing not given here
B6: Isovaleric acid-DTHFPCIKFEPRSK-K(isoglu-Palm)-CK-NH2 (peptide)
peptide: Isovaleryl-DTHFPCIKFEPRSKK([γGlu-Palmitoyl])CK-NH2
modifications: disulfide 6-16 (inferred)
B7: Isovaleric acid-DTHFPCIKFEPRSKGCK-K(isoglu-Palm)-NH2 (peptide)
peptide: DTHFPCIKFEPRSKGCKK
modifications: N-terminal isovaleric acid; K(isoglu-Palm) at Lys 18; C-terminal amide
B8: Isovaleric acid-DTHFPCI-K(dapa-Palm)-FEPRSKGCK-NH2 (peptide)
peptide: Isovaleryl-DTHFPCIK([dapa-Palmitoyl])FEPRSKGCK-NH2
modifications: not fully specified (bridges); cysteine pairing not given here
B9: Isovaleric acid-DTHFPCIKFEP-K(dapa-Palm)-SKGCK-NH2 (peptide)
peptide: Isovaleryl-DTHFPCIKFEPK([Dap-Palmitoyl])SKGCK-NH2
modifications: not fully specified (bridges); cysteine pairing not given here
B10: Isovaleric acid-DTHFPCIKFEPRS-K(dapa-Palm)-GCK-NH2 (peptide)
peptide: Isovaleryl-DTHFPCIKFEPRSK([Dap-Palmitoyl])GCK-NH2
modifications: not fully specified (bridges); cysteine pairing not given here
B11: Isovaleric acid-DTHFPCIKFEPRSKGC-K(dapa-Palm)-K-NH2 (peptide)
peptide: Isovaleryl-DTHFPCIKFEPRSKGCK([Dap-Palmitoyl])K-NH2
modifications: disulfide 6-16 (inferred)
B12: Isovaleric acid-ATHFPCIKFGPRSKGWVCK-NH2 (peptide)
peptide: Isovaleryl-ATHFPCIKFGPRSKGWVCK-NH2
modifications: disulfide 6-18 (inferred)
B13: Isovaleric acid-DTHAPCIKFGPRSKGWVCK-NH2 (peptide)
peptide: Isovaleryl-DTHAPCIKFGPRSKGWVCK-NH2
modifications: not fully specified (bridges); cysteine pairing not given here
B14: Isovaleric acid-DTHFPCIKAGPRSKGWVCK-NH2 (peptide)
peptide: Isovaleryl-DTHFPCIKAGPRSKGWVCK-NH2
modifications: not fully specified (bridges); cysteine pairing not given here
B15: Isovaleric acid-DTHFPCIKFK(isoGlu-Palm)-PRSKGWECK-NH2 (peptide)
peptide: DTHFPCIKFKPRSKGWECK
modifications: N-terminal isovaleric acid; K(isoGlu-Palm) at Lys 10; C-terminal amide
B16: Isovaleric acid-DTHFPCIKFEPK(isoGlu-Palm)-SKGWECK-NH2 (peptide)
peptide: Isovaleryl-DTHFPCIKFEPK([γGlu-Palmitoyl])SKGWECK-NH2
modifications: not fully specified (bridges); cysteine pairing not given here

Each binder was assayed against T1, human ferroportin (SLC40A1) fused in … (assay: cell-based or functional assay).
With B1 the “Potency EC50 (nM), ferroportin-GFP internalization/degradation” value was 15 nM. In the case of B2, the “Potency EC50 (nM), ferroportin-GFP internalization/degradation” value is reported as greater than 1000 nM. B3 was tested, and the “Potency EC50 (nM), ferroportin-GFP internalization/degradation” value was greater than 1000 nM. For B4, the “Potency EC50 (nM), ferroportin-GFP internalization/degradation” value was greater than 1000 nM. B5 was tested, and the “Potency EC50 (nM), ferroportin-GFP internalization/degradation” value was 5 nM. In the case of B6, the “Potency EC50 (nM), ferroportin-GFP internalization/degradation” value is reported as 4 nM. With B7 the “Potency EC50 (nM), ferroportin-GFP internalization/degradation” value was 4 nM. With B8 the “Potency EC50 (nM), ferroportin-GFP internalization/degradation” value was 17 nM. B9 was tested, and the “Potency EC50 (nM), ferroportin-GFP internalization/degradation” value was 10 nM. For B10, the “Potency EC50 (nM), ferroportin-GFP internalization/degradation” value was 7 nM. For B11, the “Potency EC50 (nM), ferroportin-GFP internalization/degradation” value was 10 nM. For B12, the “Potency EC50 (nM), ferroportin-GFP internalization/degradation” value was 60 nM. With B13 the “Potency EC50 (nM), ferroportin-GFP internalization/degradation” value was greater than 500 nM. For B14, the “Potency EC50 (nM), ferroportin-GFP internalization/degradation” value was 50 nM. B15 was tested, and the “Potency EC50 (nM), ferroportin-GFP internalization/degradation” value was 6 nM. For B16, the “Potency EC50 (nM), ferroportin-GFP internalization/degradation” value was 8 nM.
